Laboratory results taken from patent publication US20250066503A1, “CELL INJURY INDUCING THERAPEUTIC DRUG FOR USE IN CANCER THERAPY” (CHUGAI SEIYAKU KABUSHIKI KAISHA, priority 2016, published 2025).
Substitutions are numbered along the chain they refer to. Values belong to the binder of their own block, whether it stands above or below them.

Target: T1, soluble human CD3 epsilon chain (human, UniProt P07766 23-126)
T1 construct: also called CD3ε
Assay: SPR

T1 sequence (P07766 23-126 limits assumed): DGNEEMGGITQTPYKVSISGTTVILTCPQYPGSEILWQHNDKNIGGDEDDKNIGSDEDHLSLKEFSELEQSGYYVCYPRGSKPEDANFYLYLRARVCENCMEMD

- Kd: 15.2 nM
B2: TR01H043-E22Hh/none-Hi-Kn010G3/L0000-k0 (antibody, V domains shown)
VH: QVQLVESGGGLVQPGRSLRLSCSASGFTFSNAWMHWVRQAPGKGLEWVAQIKDKSNNYATYYAESVKGRFTISRADSKNSIYLQMNSLKTEDTAVYYCRYVHYSASYGVDIWGQGTTVTVSS
VL: DIVMTQSPLSLPVTPGEPASISCRSSQSLVHSNRNTYLHWYQQKPGQAPRLLIYKVSNRFSGVPDRFSGSGSGTDFTLKISRVEAEDVGVYYCGQGTQVPYTFGQGTKLEIKR
notes: one-arm

- Kd: 52.2 nM
B3: TR01H045-E22Hh/none-Hi-Kn010G3/L0000-k0 (antibody, V domains shown)
VH: B2 VH with N56Q, I111A
VL: B2 VL
notes: one-arm

- Kd: 44.8 nM
B4: TR01H042-E22Hh/none-Hi-Kn010G3/L0000-k0 (antibody, V domains shown)
VH: B2 VH with L11V, R16G, S23A, N56Q, I111A
VL: B2 VL
notes: one-arm

- Kd: 4.16 nM
B5: TR01H040-E22Hh/none-Hi-Kn010G3/L0208-k0 (antibody, V domains shown)
VH: B2 VH with S23A, N56Q, I111A
VL: B2 VL with L29P, S61W, G94Y
notes: one-arm

- Kd: 12.4 nM
B6: TR01H038-E22Hh/none-Hi-Kn010G3/L0000-k0 (antibody, V domains shown)
VH: B2 VH with S23A
VL: B2 VL
notes: one-arm

- Kd: 31.6 nM
B7: TR01H041-E22Hh/none-Hi-Kn010G3/L0000-k0 (antibody, V domains shown)
VH: B2 VH with S23A, N56Q, I111Y
VL: B2 VL
notes: one-arm

- Kd: 22.1 nM
B11: TR01H040-E22Hh/none-Hi-Kn010G3/L0204-k0 (antibody, V domains shown)
VH: B2 VH with S23A, N56Q, I111A
VL: B2 VL with L29P, S61R
notes: one-arm

- Kd: 2.9 nM
B13: TR01H040-E22Hh/none-Hi-Kn010G3/L0206-k0 (antibody, V domains shown)
VH: B2 VH with S23A, N56Q, I111A
VL: B2 VL with L29P, G94Y
notes: one-arm

- Kd: 35.2 nM
B18: TR01H044-E22Hh/none-Hi-Kn010G3/L0000-k0 (antibody, V domains shown)
VH: B2 VH with N56Q
VL: B2 VL
notes: one-arm

- Kd: 42.3 nM
B19: TR01H046-E22Hh/none-Hi-Kn010G3/L0000-k0 (antibody, V domains shown)
VH: B2 VH with N56Q, I111Y
VL: B2 VL
notes: one-arm

- Kd: 34.8 nM
B20: TR01H040-E22Hh/none-Hi-Kn010G3/L0011-k0 (antibody, V domains shown)
VH: B2 VH with S23A, N56Q, I111A
VL: B2 VL with S28P
notes: one-arm

- Kd: 46.5 nM
B22: TR01H040-E22Hh/none-Hi-Kn010G3/L0222-k0 (antibody, V domains shown)
VH: B2 VH with S23A, N56Q, I111A
VL: B2 VL with L29P, L38I, H39Q, G94Y
notes: one-arm

- Kd: 32.4 nM
B24: TR01H040-E22Hh/none-Hi-Kn010G3/L0203-k0 (antibody, V domains shown)
VH: B2 VH with S23A, N56Q, I111A
VL: B2 VL with L29P, L38I
notes: one-arm

- Kd: 2.17 nM
B26: TR01H040-E22Hh/none-Hi-Kn010G3/L0212-k0 (antibody, V domains shown)
VH: B2 VH with S23A, N56Q, I111A
VL: B2 VL with S25P, L29P, G94Y
notes: one-arm

- Kd: 4.25 nM
B28: TR01H040-E22Hh/none-Hi-Kn010G3/L0209-k0 (antibody, V domains shown)
VH: B2 VH with S23A, N56Q, I111A
VL: B2 VL with L29P, L38I, G94Y
notes: one-arm

- Kd: 26.1 nM
B32: TR01H039-E22Hh/none-Hi-Kn010G3/L0000-k0 (antibody, V domains shown)
VH: B2 VH with S23A, N56Q
VL: B2 VL
notes: one-arm

- Kd: 3.22 nM
B39: TR01H040-E22Hh/none-Hi-Kn010G3/L0211-k0 (antibody, V domains shown)
VH: B2 VH with S23A, N56Q, I111A
VL: B2 VL with S28P, L29P, G94Y
notes: one-arm

- Kd: 36 nM
B42: TR01H040-E22Hh/none-Hi-Kn010G3/L0000-k0 (antibody, V domains shown)
VH: B2 VH with S23A, N56Q, I111A
VL: B2 VL
notes: one-arm

- Kd: 28.1 nM
B43: TR01H040-E22Hh/none-Hi-Kn010G3/L0201-k0 (antibody, V domains shown)
VH: B2 VH with S23A, N56Q, I111A
VL: B2 VL with S28P, L29P
notes: one-arm

- Kd: 6.93 nM
B45: TR01H037-E22Hh/none-Hi-Kn010G3/L0000-k0 (antibody, V domains shown)
VH: B2 VH with S23A, H35P, D53G
VL: B2 VL
notes: one-arm

Continued, binder first:

B1: TR01H011-E22Hh/none-Hi-Kn010G3/L0000-k0 (antibody, V domains shown)
VH: B2 VH with S23A, D53A, S104G
VL: B2 VL
notes: one-arm
- Kd: 37.1 nM

B8: TR01H036-E22Hh/none-Hi-Kn010G3/L0000-k0 (antibody, V domains shown)
VH: B2 VH with S23A, D53G, I111Y
VL: B2 VL
notes: one-arm
- Kd: 65 nM

B9: TR01H031-E22Hh/none-Hi-Kn010G3/L0000-k0 (antibody)
VH: B2 VH with L11V, R16G, S23A, D53G
light: DIVMTQSPLSLPVTPGEPASISCRSSQSLVHSNRNTYLHWYQQKPGQAPRLLIYKVSNRFSGVPDRFSGSGSGTDFTLKISRVEAEDVGVYYCGQGTQVPYTFGQGTKLEIKRTVAAPSVFIFPPSDEQLKSGTASVVCLLNNFYPREAKVQWKVDNALQSGNSQESVTEQDSKDSTYSLSSTLTLSKADYEKHKVYACEVTHQGLSSPVTKSFNRGEC
notes: one-arm
- Kd: 75.5 nM

B10: TR01H022-E22Hh/none-Hi-Kn010G3/L0000-k0 (antibody, V domains shown)
VH: B2 VH with R16G, S23A, D53G, N56Q, E64P
VL: B2 VL
notes: one-arm
- Kd: 75.8 nM

B12: TR01H034-E22Hh/none-Hi-Kn010G3/L0000-k0 (antibody, V domains shown)
VH: B2 VH with S23A, D53G, N56Q, I111A
VL: B2 VL
notes: one-arm
- Kd: 91.1 nM

B14: TR01H030-E22Hh/none-Hi-Kn010G3/L0000-k0 (antibody)
VH: B2 VH with L11V, S23A, D53G
light: B9 light
notes: one-arm
- Kd: 65.4 nM

B15: TR01H021-E22Hh/none-Hi-Kn010G3/L0000-k0 (antibody, V domains shown)
VH: B2 VH with S23A, D53G, I111A
VL: B2 VL
notes: one-arm
- Kd: 80.5 nM

B16: TR01H027-E22Hh/none-Hi-Kn010G3/L0000-k0 (antibody, V domains shown)
VH: B2 VH with R16G, S23A, D53S, N56Q, I111A
VL: B2 VL
notes: one-arm
- Kd: 69.5 nM

B17: TR01H014-E22Hh/none-Hi-Kn010G3/L0000-k0 (antibody, V domains shown)
VH: B2 VH with S23A, D53G, E64P, S104G, S106Y
VL: B2 VL
notes: one-arm
- Kd: 38.7 nM

B21: TR01H035-E22Hh/none-Hi-Kn010G3/L0000-k0 (antibody, V domains shown)
VH: B2 VH with S23A, D53G, N56Q, I111Y
VL: B2 VL
notes: one-arm
- Kd: 84.9 nM

B23: TR01H032-E22Hh/none-Hi-Kn010G3/L0000-k0 (antibody, V domains shown)
VH: B2 VH with S23A, D53S, N56Q, I111A
VL: B2 VL
notes: one-arm
- Kd: 57.3 nM

B25: TR01H018-E22Hh/none-Hi-Kn010G3/L0000-k0 (antibody)
VH: B2 VH with R16G, S23A, D53G
light: B9 light
notes: one-arm
- Kd: 69.3 nM

B27: TR01H012-E22Hh/none-Hi-Kn010G3/L0000-k0 (antibody, V domains shown)
VH: B2 VH with S23A, D53A, S104Y, A105Y
VL: B2 VL
notes: one-arm
- Kd: 7.94 nM

B29: TR01H017-E22Hh/none-Hi-Kn010G3/L0000-k0 (antibody, V domains shown)
VH: B2 VH with R16G, S23A, D53A, S104G, S106Y
VL: B2 VL
notes: one-arm
- Kd: 35 nM

B30: TR01H013-E22Hh/none-Hi-Kn010G3/L0000-k0 (antibody, V domains shown)
VH: B2 VH with S23A, D53G, N56Q, S104G, S106Y
VL: B2 VL
notes: one-arm
- Kd: 49.4 nM

B31: TR01H020-E22Hh/none-Hi-Kn010G3/L0000-k0 (antibody, V domains shown)
VH: B2 VH with S23A, D53G, E64P
VL: B2 VL
notes: one-arm
- Kd: 64.8 nM

B33: TR01H029-E22Hh/none-Hi-Kn010G3/L0000-k0 (antibody, V domains shown)
VH: B2 VH with D53G
VL: B2 VL
notes: one-arm
- Kd: 67 nM

B34: TR01H024-E22Hh/none-Hi-Kn010G3/L0000-k0 (antibody, V domains shown)
VH: B2 VH with R16G, S23A, D53G, N56Q, I111A
VL: B2 VL
notes: one-arm
- Kd: 108 nM

B35: TR01H019-E22Hh/none-Hi-Kn010G3/L0000-k0 (antibody, V domains shown)
VH: B2 VH with S23A, D53G, N56Q
VL: B2 VL
notes: one-arm
- Kd: 68.5 nM

B36: TR01H023-E22Hh/none-Hi-Kn010G3/L0000-k0 (antibody, V domains shown)
VH: B2 VH with R16G, S23A, D53G, N56Q
VL: B2 VL
notes: one-arm
- Kd: 79.4 nM

B37: TR01H028-E22Hh/none-Hi-Kn010G3/L0000-k0 (antibody, V domains shown)
VH: B2 VH with L11V, R16G, S23A, D53S, N56Q
VL: B2 VL
notes: one-arm
- Kd: 48 nM

B38: TR01H033-E22Hh/none-Hi-Kn010G3/L0000-k0 (antibody, V domains shown)
VH: B2 VH with S23A, D53S, N56Q, I111Y
VL: B2 VL
notes: one-arm
- Kd: 48.8 nM

B40: TR01H025-E22Hh/none-Hi-Kn010G3/L0000-k0 (antibody, V domains shown)
VH: B2 VH with S23A, D53S, N56Q
VL: B2 VL
notes: one-arm
- Kd: 38.6 nM

B41: TR01H026-E22Hh/none-Hi-Kn010G3/L0000-k0 (antibody, V domains shown)
VH: B2 VH with R16G, S23A, D53S, N56Q
VL: B2 VL
notes: one-arm
- Kd: 51.2 nM

B44: TR01H016-E22Hh/none-Hi-Kn010G3/L0000-k0 (antibody, V domains shown)
VH: B2 VH with S23A, D53G, A105Y
VL: B2 VL
notes: one-arm
- Kd: 36.9 nM
